Results: patent US20230406885A1, “CYCLIC PEPTIDES FOR TRAPPING INTERLEUKIN-1 BETA” (MERCK SHARP & DOHME LLC, priority 2022, published 2023)
*1 amine or outer side, *2 acyl side, *3 side chain or, on linkers, in order; H or OH if unused. [ ]: non-standard residue; d: D form. F4bcpA = 3-[4-[(S)-2-amino-2-carboxyethyl]phenyl]bicyclo[1.1.1]pentane-1-carboxylic acid, O=C([C@H](Cc1ccc(C23CC(C(=O)[*:3])(C2)C3)cc1)N[*:1])[*:2]; 3AzaPhe4AcPip = (S)-3-(6-(4-acetylpiperazin-1-yl)pyridin-3-yl)-2-aminopropanoic acid, CC(=O)N1CCN(c2ccc(C[C@H](N[*:1])C(=O)[*:2])cn2)CC1; dDabMe3 = [(R)-3-amino-3-carboxypropyl]-trimethylazanium, C[N+](C)(C)CC[C@@H](N[*:1])C(=O)[*:2]; F4pcCCA = (1R,4s)-4-(4-((S)-2-amino-2-carboxyethyl)phenyl)cyclohexane-1-carboxylic acid; Phe(4-(trans-4-COOH-cHex)) = N[C@@H](Cc1ccc([C@H]2CC[C@H](C(=O)O)CC2)cc1)C(=O)O; Pro(trans-4-NH2) = O=C([C@@H]1C[C@@H](N[*:3])CN1[*:1])[*:2]; Trp(βS-Me,4-F) = C[C@@H](c1c[nH]c2cccc(F)c12)[C@H](N)C(=O)O; Bip(4'-COOH) = N[C@@H](Cc1ccc(-c2ccc(C(=O)O)cc2)cc1)C(=O)O; 1Nal(3S-Me) = C[C@@H](c1cccc2ccccc12)[C@H](N)C(=O)O; Ala(indazol-1-yl) = N[C@@H](Cn1ncc2ccccc21)C(=O)O; Phe(4-COOH) = N[C@@H](Cc1ccc(C(=O)O)cc1)C(=O)O; Trp(6-F) = N[C@@H](Cc1c[nH]c2cc(F)ccc12)C(=O)O; Trp(7-Me) = Cc1cccc2c(C[C@H](N)C(=O)O)c[nH]c12; h3Pal(5-CN) = N#Cc1cncc(CC[C@H](N)C(=O)O)c1; hTyr = N[C@@H](CCc1ccc(O)cc1)C(=O)O; hCha = N[C@@H](CCC1CCCCC1)C(=O)O; tBuAla = CC(C)(C)C[C@H](N)C(=O)O; 4Pal = N[C@@H](Cc1ccncc1)C(=O)O; Cha = N[C@@H](CC1CCCCC1)C(=O)O; dDab = NCC[C@@H](N)C(=O)O; Orn = NCCC[C@H](N)C(=O)O; dNMeA = CN[C@H](C)C(=O)O

B1: SEQ ID NO: 182 (Example No. 182) (peptide)
peptide: cyclo([3AzaPhe4AcPip]W[Phe(4-COOH)]G[Pro(trans-4-NH2)][1Nal(3S-Me)]D[dNMeA]G[Bip(4'-COOH)][Orn]L[dA][hCha])
SMILES: CC(=O)N1CCN(c2ccc(C[C@@H]3NC(=O)[C@H](CCC4CCCCC4)NC(=O)[C@@H](C)NC(=O)[C@H](CC(C)C)NC(=O)[C@H](CCCN)NC(=O)[C@H](Cc4ccc(-c5ccc(C(=O)O)cc5)cc4)NC(=O)CNC(=O)[C@@H](C)N(C)C(=O)[C@H](CC(=O)O)NC(=O)[C@H]([C@@H](C)c4cccc5ccccc45)NC(=O)[C@@H]4C[C@@H](N)CN4C(=O)CNC(=O)[C@H](Cc4ccc(C(=O)O)cc4)NC(=O)[C@H](Cc4c[nH]c5ccccc45)NC3=O)cn2)CC1
B2: SEQ ID NO: 181 (Example No. 181) (peptide)
peptide: cyclo([3AzaPhe4AcPip]W[Phe(4-COOH)]G[Pro(trans-4-NH2)][1Nal(3S-Me)]D[dNMeA]G[Bip(4'-COOH)]K[tBuAla][dA][h3Pal(5-CN)])
SMILES: CC(=O)N1CCN(c2ccc(C[C@@H]3NC(=O)[C@H](CCc4cncc(C#N)c4)NC(=O)[C@@H](C)NC(=O)[C@H](CC(C)(C)C)NC(=O)[C@H](CCCCN)NC(=O)[C@H](Cc4ccc(-c5ccc(C(=O)O)cc5)cc4)NC(=O)CNC(=O)[C@@H](C)N(C)C(=O)[C@H](CC(=O)O)NC(=O)[C@H]([C@@H](C)c4cccc5ccccc45)NC(=O)[C@@H]4C[C@@H](N)CN4C(=O)CNC(=O)[C@H](Cc4ccc(C(=O)O)cc4)NC(=O)[C@H](Cc4c[nH]c5ccccc45)NC3=O)cn2)CC1
B3: SEQ ID NO: 193 (Example No. 193) (peptide)
peptide: cyclo([Phe(4-(trans-4-COOH-cHex))][Trp(6-F)][Phe(4-COOH)]G[Pro(trans-4-NH2)][1Nal(3S-Me)]D[dNMeA]G[Bip(4'-COOH)][4Pal]S[dDab][hCha])
SMILES: C[C@@H]1C(=O)NCC(=O)N[C@@H](Cc2ccc(-c3ccc(C(=O)O)cc3)cc2)C(=O)N[C@@H](Cc2ccncc2)C(=O)N[C@@H](CO)C(=O)N[C@H](CCN)C(=O)N[C@@H](CCC2CCCCC2)C(=O)N[C@@H](Cc2ccc([C@H]3CC[C@H](C(=O)O)CC3)cc2)C(=O)N[C@@H](Cc2c[nH]c3cc(F)ccc23)C(=O)N[C@@H](Cc2ccc(C(=O)O)cc2)C(=O)NCC(=O)N2C[C@H](N)C[C@H]2C(=O)N[C@@H]([C@@H](C)c2cccc3ccccc23)C(=O)N[C@@H](CC(=O)O)C(=O)N1C
B4: SEQ ID NO: 190 (Example No. 190) (peptide)
peptide: cyclo([F4bcpA]W[Phe(4-COOH)]G[Pro(trans-4-NH2)][1Nal(3S-Me)]D[dNMeA]G[Bip(4'-COOH)][Cha]G[dDab][hTyr])
SMILES: C[C@@H]1C(=O)NCC(=O)N[C@@H](Cc2ccc(-c3ccc(C(=O)O)cc3)cc2)C(=O)N[C@@H](CC2CCCCC2)C(=O)NCC(=O)N[C@H](CCN)C(=O)N[C@@H](CCc2ccc(O)cc2)C(=O)N[C@@H](Cc2ccc(C34CC(C(=O)O)(C3)C4)cc2)C(=O)N[C@@H](Cc2c[nH]c3ccccc23)C(=O)N[C@@H](Cc2ccc(C(=O)O)cc2)C(=O)NCC(=O)N2C[C@H](N)C[C@H]2C(=O)N[C@@H]([C@@H](C)c2cccc3ccccc23)C(=O)N[C@@H](CC(=O)O)C(=O)N1C
B5: SEQ ID NO: 186 (Example No. 186) (peptide)
peptide: cyclo([Bip(4'-COOH)][Trp(7-Me)][Phe(4-COOH)]G[Pro(trans-4-NH2)][Trp(βS-Me,4-F)]D[dNMeA]G[Bip(4'-COOH)]KL[dA][hTyr])
SMILES: Cc1cccc2c(C[C@@H]3NC(=O)[C@H](Cc4ccc(-c5ccc(C(=O)O)cc5)cc4)NC(=O)[C@H](CCc4ccc(O)cc4)NC(=O)[C@@H](C)NC(=O)[C@H](CC(C)C)NC(=O)[C@H](CCCCN)NC(=O)[C@H](Cc4ccc(-c5ccc(C(=O)O)cc5)cc4)NC(=O)CNC(=O)[C@@H](C)N(C)C(=O)[C@H](CC(=O)O)NC(=O)[C@H]([C@@H](C)c4c[nH]c5cccc(F)c45)NC(=O)[C@@H]4C[C@@H](N)CN4C(=O)CNC(=O)[C@H](Cc4ccc(C(=O)O)cc4)NC3=O)c[nH]c12
B6: SEQ ID NO: 194 (Example No. 194) (peptide)
peptide: cyclo([Phe(4-(trans-4-COOH-cHex))][Trp(6-F)][Phe(4-COOH)]G[Pro(trans-4-NH2)][1Nal(3S-Me)]D[dNMeA]G[Bip(4'-COOH)][4Pal]S[dDabMe3][hCha])
SMILES: C[C@@H]1C(=O)NCC(=O)N[C@@H](Cc2ccc(-c3ccc(C(=O)O)cc3)cc2)C(=O)N[C@@H](Cc2ccncc2)C(=O)N[C@@H](CO)C(=O)N[C@H](CC[N+](C)(C)C)C(=O)N[C@@H](CCC2CCCCC2)C(=O)N[C@@H](Cc2ccc([C@H]3CC[C@H](C(=O)O)CC3)cc2)C(=O)N[C@@H](Cc2c[nH]c3cc(F)ccc23)C(=O)N[C@@H](Cc2ccc(C(=O)O)cc2)C(=O)NCC(=O)N2C[C@H](N)C[C@H]2C(=O)N[C@@H]([C@@H](C)c2cccc3ccccc23)C(=O)N[C@@H](CC(=O)O)C(=O)N1C
B7: SEQ ID NO: 188 (Example No. 188) (peptide)
peptide: cyclo([F4bcpA]W[Phe(4-COOH)]G[Pro(trans-4-NH2)][1Nal(3S-Me)]D[dNMeA]G[Bip(4'-COOH)][Ala(indazol-1-yl)]G[dDab][hCha])
SMILES: C[C@@H]1C(=O)NCC(=O)N[C@@H](Cc2ccc(-c3ccc(C(=O)O)cc3)cc2)C(=O)N[C@@H](Cn2ncc3ccccc32)C(=O)NCC(=O)N[C@H](CCN)C(=O)N[C@@H](CCC2CCCCC2)C(=O)N[C@@H](Cc2ccc(C34CC(C(=O)O)(C3)C4)cc2)C(=O)N[C@@H](Cc2c[nH]c3ccccc23)C(=O)N[C@@H](Cc2ccc(C(=O)O)cc2)C(=O)NCC(=O)N2C[C@H](N)C[C@H]2C(=O)N[C@@H]([C@@H](C)c2cccc3ccccc23)C(=O)N[C@@H](CC(=O)O)C(=O)N1C
B8: SEQ ID NO: 183 (Example No. 183) (peptide)
peptide: cyclo([3AzaPhe4AcPip]W[Phe(4-COOH)]G[Pro(trans-4-NH2)][1Nal(3S-Me)]D[dNMeA]G[Bip(4'-COOH)]QL[dA][h3Pal(5-CN)])
SMILES: CC(=O)N1CCN(c2ccc(C[C@@H]3NC(=O)[C@H](CCc4cncc(C#N)c4)NC(=O)[C@@H](C)NC(=O)[C@H](CC(C)C)NC(=O)[C@H](CCC(N)=O)NC(=O)[C@H](Cc4ccc(-c5ccc(C(=O)O)cc5)cc4)NC(=O)CNC(=O)[C@@H](C)N(C)C(=O)[C@H](CC(=O)O)NC(=O)[C@H]([C@@H](C)c4cccc5ccccc45)NC(=O)[C@@H]4C[C@@H](N)CN4C(=O)CNC(=O)[C@H](Cc4ccc(C(=O)O)cc4)NC(=O)[C@H](Cc4c[nH]c5ccccc45)NC3=O)cn2)CC1
B9: SEQ ID NO: 189 (Example No. 189) (peptide)
peptide: cyclo([F4bcpA]W[Phe(4-COOH)]G[Pro(trans-4-NH2)][1Nal(3S-Me)]D[dNMeA]G[Bip(4'-COOH)][Cha]G[dDab][hCha])
SMILES: C[C@@H]1C(=O)NCC(=O)N[C@@H](Cc2ccc(-c3ccc(C(=O)O)cc3)cc2)C(=O)N[C@@H](CC2CCCCC2)C(=O)NCC(=O)N[C@H](CCN)C(=O)N[C@@H](CCC2CCCCC2)C(=O)N[C@@H](Cc2ccc(C34CC(C(=O)O)(C3)C4)cc2)C(=O)N[C@@H](Cc2c[nH]c3ccccc23)C(=O)N[C@@H](Cc2ccc(C(=O)O)cc2)C(=O)NCC(=O)N2C[C@H](N)C[C@H]2C(=O)N[C@@H]([C@@H](C)c2cccc3ccccc23)C(=O)N[C@@H](CC(=O)O)C(=O)N1C
B10: SEQ ID NO: 187 (Example No. 187) (peptide)
peptide: cyclo([Bip(4'-COOH)]W[Phe(4-COOH)]G[Pro(trans-4-NH2)][Trp(βS-Me,4-F)]D[dNMeA]G[Bip(4'-COOH)]KL[dK](Ac)[hTyr])
SMILES: CC(=O)NCCCC[C@H]1NC(=O)[C@H](CC(C)C)NC(=O)[C@H](CCCCN)NC(=O)[C@H](Cc2ccc(-c3ccc(C(=O)O)cc3)cc2)NC(=O)CNC(=O)[C@@H](C)N(C)C(=O)[C@H](CC(=O)O)NC(=O)[C@H]([C@@H](C)c2c[nH]c3cccc(F)c23)NC(=O)[C@@H]2C[C@@H](N)CN2C(=O)CNC(=O)[C@H](Cc2ccc(C(=O)O)cc2)NC(=O)[C@H](Cc2c[nH]c3ccccc23)NC(=O)[C@H](Cc2ccc(-c3ccc(C(=O)O)cc3)cc2)NC(=O)[C@H](CCc2ccc(O)cc2)NC1=O
B11: SEQ ID NO: 192 (Example No. 192) (peptide)
peptide: cyclo([Phe(4-(trans-4-COOH-cHex))][Trp(6-F)][Phe(4-COOH)]G[Pro(trans-4-NH2)][1Nal(3S-Me)]D[dNMeA]G[Bip(4'-COOH)][4Pal]G[dDab][hCha])
SMILES: C[C@@H]1C(=O)NCC(=O)N[C@@H](Cc2ccc(-c3ccc(C(=O)O)cc3)cc2)C(=O)N[C@@H](Cc2ccncc2)C(=O)NCC(=O)N[C@H](CCN)C(=O)N[C@@H](CCC2CCCCC2)C(=O)N[C@@H](Cc2ccc([C@H]3CC[C@H](C(=O)O)CC3)cc2)C(=O)N[C@@H](Cc2c[nH]c3cc(F)ccc23)C(=O)N[C@@H](Cc2ccc(C(=O)O)cc2)C(=O)NCC(=O)N2C[C@H](N)C[C@H]2C(=O)N[C@@H]([C@@H](C)c2cccc3ccccc23)C(=O)N[C@@H](CC(=O)O)C(=O)N1C

Each binder was assayed against Recombinant human IL-1β (BioLegend 579404) (human, UniProt P01584 117-269) (assay: cell-based or functional assay).

B1 and B2 are within 1.5-fold of each other in “MRC5 IC50” value: 0.013 nM for the first, 0.015 nM for the second.

Going from cyclo([F4pcCCA]W[Phe(4-COOH)]G[Pro(trans-4-NH2)][1Nal(3S-Me)]D[dNMeA]G[Bip(4'-COOH)][4Pal]G[dDab][hCha]) [SEQ ID NO: 191 (Example No. 191)] to B3, the “MRC5 IC50” value falls from 0.019 nM to 0.012 nM (1.6-fold).

First: B4
Second: B5
The “MRC5 IC50” value of the first is 2.1-fold lower: 0.018 nM for the first, 0.038 nM for the second.

cyclo([Bip(4'-COOH)][Trp6Cl][Phe(4-COOH)]G[Pro(trans-4-NH2)][Trp(βS-Me,4-F)]D[dNMeA]G[Bip(4'-COOH)]KL[dA][hTyr]) [SEQ ID NO: 184 (Example No. 184)] and cyclo([Bip(4'-COOH)][Trp7F][Phe(4-COOH)]G[Pro(trans-4-NH2)][Trp(βS-Me,4-F)]D[dNMeA]G[Bip(4'-COOH)]KL[dA][hTyr]) [SEQ ID NO: 185 (Example No. 185)] are within 1.5-fold of each other in “MRC5 IC50” value: 0.018 nM for the first, 0.024 nM for the second.

B6 and B7 are within 1.5-fold of each other in “MRC5 IC50” value: 0.015 nM for the first, 0.016 nM for the second.

B8 and B9 are within 1.5-fold of each other in “MRC5 IC50” value: 0.013 nM for the first, 0.019 nM for the second.

Going from B10 to B11, the “MRC5 IC50” value rises from 0.009 nM to 0.015 nM (1.7-fold).
